Results from the supplement of paper PMC9876800.

Test system: peptide library, one residue held at a place counted from the S/T acceptor
Assay: relative phosphorylation of the sub-library (ratio to the mean residue at this position); human; higher = residue favoured
Method in brief: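 Relative sub-library phosphorylation is the ratio of each sub-library's signal to the mean residue at that position. The signal came from phosphorimaging of spots on streptavidin membranes, quantified by densitometry, after purified recombinant kinases reacted with biotinylated degenerate peptide sub-libraries in 384-well plates. Reactions held 50 μM peptide and 50 μM ATP spiked with γ-32P-ATP for 90 min under kinase-specific conditions.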

Chain of BRSK2, construct: Full length (Q8IWQ3 whole entry, looked up): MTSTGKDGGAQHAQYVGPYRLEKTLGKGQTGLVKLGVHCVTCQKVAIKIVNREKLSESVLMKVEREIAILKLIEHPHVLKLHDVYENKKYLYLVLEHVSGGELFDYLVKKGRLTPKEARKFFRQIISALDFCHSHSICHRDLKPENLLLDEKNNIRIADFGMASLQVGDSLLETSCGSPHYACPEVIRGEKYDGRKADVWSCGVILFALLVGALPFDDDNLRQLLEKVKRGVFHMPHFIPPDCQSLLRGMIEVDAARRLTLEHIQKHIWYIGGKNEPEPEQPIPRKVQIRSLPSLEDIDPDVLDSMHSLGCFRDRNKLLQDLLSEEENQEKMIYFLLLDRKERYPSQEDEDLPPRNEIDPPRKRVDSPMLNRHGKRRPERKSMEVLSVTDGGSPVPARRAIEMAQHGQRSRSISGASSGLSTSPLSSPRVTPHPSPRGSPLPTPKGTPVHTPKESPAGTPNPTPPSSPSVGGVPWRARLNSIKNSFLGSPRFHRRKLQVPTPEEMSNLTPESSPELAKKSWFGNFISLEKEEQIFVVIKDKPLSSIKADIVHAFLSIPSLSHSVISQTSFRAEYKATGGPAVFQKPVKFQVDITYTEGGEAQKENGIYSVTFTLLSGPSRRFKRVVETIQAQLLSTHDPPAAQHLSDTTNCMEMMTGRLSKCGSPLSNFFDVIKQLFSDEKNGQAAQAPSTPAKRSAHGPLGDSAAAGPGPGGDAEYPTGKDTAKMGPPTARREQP
Chain of MOK, construct: aa1-343 (Q9UQ07 1-343, looked up): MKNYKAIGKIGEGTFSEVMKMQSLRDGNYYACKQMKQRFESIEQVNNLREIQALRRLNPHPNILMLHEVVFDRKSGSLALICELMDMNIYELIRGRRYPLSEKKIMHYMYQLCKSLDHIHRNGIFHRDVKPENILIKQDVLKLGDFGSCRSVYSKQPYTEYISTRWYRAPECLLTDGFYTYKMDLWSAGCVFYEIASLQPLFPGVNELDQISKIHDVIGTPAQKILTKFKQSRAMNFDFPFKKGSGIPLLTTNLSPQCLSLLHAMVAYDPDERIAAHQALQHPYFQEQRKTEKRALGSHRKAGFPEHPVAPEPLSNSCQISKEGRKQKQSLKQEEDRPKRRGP
Chain of ACVR1B, construct: aa150-end (P36896 150-505, looked up): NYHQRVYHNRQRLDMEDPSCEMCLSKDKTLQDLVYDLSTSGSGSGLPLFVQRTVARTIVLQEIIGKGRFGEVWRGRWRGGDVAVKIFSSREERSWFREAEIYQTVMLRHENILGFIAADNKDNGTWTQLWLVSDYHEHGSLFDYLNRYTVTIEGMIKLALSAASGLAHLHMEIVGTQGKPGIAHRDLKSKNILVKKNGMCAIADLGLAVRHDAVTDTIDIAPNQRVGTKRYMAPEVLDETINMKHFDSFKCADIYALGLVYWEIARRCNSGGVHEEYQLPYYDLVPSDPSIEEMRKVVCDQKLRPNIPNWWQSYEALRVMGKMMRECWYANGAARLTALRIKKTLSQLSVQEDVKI

MOK, construct: aa1-343 (from UniProt Q9UQ07)
relative phosphorylation
Settings	at +1	at +2	at +3	at +4	at -1	at -2	at -3	at -4	at -5
A fixed	2.2	1.04	1.2	0.799	1.12	1.03	0.724	0.79	0.816
D fixed	0.137	0.59	0.511	0.519	0.269	0.168	0.231	0.441	0.526
E fixed	0.15	0.672	0.507	0.506	0.332	0.208	0.246	0.506	0.552
F fixed	0.2	0.836	1.02	0.891	0.786	0.328	0.314	0.739	1.02
G fixed	1.23	1.51	1.52	1.34	1.36	0.824	0.645	0.89	1.04
H fixed	0.389	1.44	1.28	1.09	1.19	0.418	0.564	0.862	1.09
I fixed	0.215	0.624	0.704	0.855	0.511	0.863	0.54	0.73	0.865
K fixed	0.574	1.15	1.15	1.44	1.61	0.8	1.27	1.43	1.36
L fixed	0.204	0.822	0.848	0.904	0.712	1.2	0.587	0.739	0.761
M fixed	0.253	0.935	0.967	1.05	1.22	0.675	0.501	0.946	0.903
N fixed	0.32	0.999	0.93	1.06	0.672	0.498	0.452	0.628	0.784
P fixed	6.41	1.12	1.13	1.11	1.33	5.97	1.26	0.96	1.11
Q fixed	0.567	1.21	0.857	0.964	1	0.629	0.563	0.818	0.916
R fixed	3.21	1.58	1.53	1.74	2.2	1.81	7.98	4.34	2.3
V fixed	0.515	0.551	0.668	0.801	0.631	0.918	0.441	0.622	0.622
W fixed	0.215	0.884	0.985	1.02	0.976	0.331	0.316	0.811	1.02
Y fixed	0.21	1.04	1.19	0.921	1.08	0.323	0.377	0.745	1.31
pThr fixed	0.333	0.394	0.486	0.512	0.236	0.431	0.358	0.532	0.775
pTyr fixed	0.334	0.447	0.651	0.45	0.354	0.268	0.329	0.473	0.804

ACVR1B, construct: aa150-end (from UniProt P36896)
relative phosphorylation
Settings	at +1	at +2	at +3	at +4	at -1	at -2	at -3	at -4	at -5
A fixed	0.754	1.35	0.905	1.06	0.833	0.721	0.953	0.891	1.03
D fixed	1.17	1.11	1.11	1.24	1.05	1.58	1.35	1.55	1.12
E fixed	1.75	0.847	1.54	1.19	1.32	6.31	1.52	1.26	0.838
F fixed	1.09	1.01	1.19	0.997	0.896	0.497	1.03	1.02	1.13
G fixed	0.796	0.995	1.22	0.798	0.65	0.801	1.12	1.03	0.975
H fixed	0.749	0.809	0.948	0.968	1.16	0.606	1.02	0.997	1.24
I fixed	1.21	1.13	1.06	0.855	1	0.622	0.855	0.874	0.837
K fixed	0.542	0.649	0.605	0.896	0.747	0.483	0.798	0.987	1.11
L fixed	1.05	1.22	1.01	0.818	1.33	0.597	0.85	0.936	0.931
M fixed	1.33	0.865	1.04	0.967	1.45	0.497	0.998	1.06	0.968
N fixed	0.774	0.902	0.741	0.975	0.963	0.716	0.96	0.954	1.01
P fixed	0.691	1.17	1.14	1.42	0.762	0.549	0.947	0.94	0.939
Q fixed	0.944	0.952	0.909	1.01	1.03	0.72	0.956	0.768	0.809
R fixed	0.604	0.764	0.662	0.799	0.88	0.624	0.884	0.889	1.11
V fixed	1.19	1.18	1.09	0.929	1.12	0.603	0.867	0.843	0.816
W fixed	1.14	0.919	0.903	1.07	0.822	0.592	0.892	1.01	1.19
Y fixed	1.23	1.13	0.95	1.01	0.991	0.49	0.995	0.998	0.953
pThr fixed	2.93	1.06	0.942	1.36	0.888	1.36	1.34	0.896	1.1
pTyr fixed	3.57	1.77	1.28	1.51	1.27	0.679	1.02	1.26	1.03

PKN3, construct: Full length (from UniProt Q6P5Z2)
relative phosphorylation
Settings	at +1	at +2	at +3	at +4	at -1	at -2	at -3	at -4	at -5
A fixed	0.497	0.811	0.681	0.955	0.874	1.12	0.679	1.07	0.92
D fixed	0.614	0.652	0.765	0.967	1.01	0.684	0.44	0.823	0.801
E fixed	0.554	0.784	0.848	0.887	1.06	0.791	0.504	1.12	0.719
F fixed	4.24	0.552	0.883	0.671	0.682	0.703	0.562	0.717	0.839
G fixed	0.625	0.52	0.918	1.13	1.12	1.21	0.898	1.08	0.973
H fixed	0.667	1.55	1.32	1.3	1.21	1.12	1.06	1.09	1.12
I fixed	1.14	0.724	0.782	0.714	0.444	0.511	0.427	0.776	1.18
K fixed	0.802	1.67	1.2	1.64	1.55	1.75	1.54	1.55	1.1
L fixed	0.951	0.864	0.894	0.738	0.77	0.569	0.413	0.775	1.34
M fixed	1.83	0.728	0.833	0.858	0.854	0.771	1.28	1.07	0.97
N fixed	0.78	1.17	1	1.19	1.48	1.33	0.713	1.25	1.06
P fixed	0.426	0.432	0.736	1.36	1.56	0.721	0.899	0.924	0.955
Q fixed	0.88	0.806	1.11	1.15	1.36	1.34	0.786	0.922	0.789
R fixed	0.74	3.4	1.4	1.02	1.12	2.24	5.22	1.4	1.5
V fixed	0.892	0.753	0.807	0.716	0.558	0.711	0.496	0.801	1.07
W fixed	0.606	0.683	1.32	0.883	0.524	0.782	0.517	0.85	0.828
Y fixed	0.751	0.898	1.49	0.823	0.812	0.646	0.561	0.786	0.833
pThr fixed	0.747	0.671	0.69	0.944	0.866	0.755	0.532	0.645	0.581
pTyr fixed	0.695	0.952	0.825	0.807	0.585	0.662	0.902	0.676	0.781

BRSK2, construct: Full length (from UniProt Q8IWQ3)
relative phosphorylation
Settings	at +1	at +2	at +3	at +4	at -1	at -2	at -3	at -4	at -5
A fixed	0.653	0.569	0.726	0.598	1.07	1.91	0.829	1.14	1.01
D fixed	0.341	0.505	1.34	0.41	0.539	0.816	0.264	0.367	0.357
E fixed	0.396	0.471	0.574	0.299	0.433	0.659	0.257	0.435	0.355
F fixed	2.02	1.69	1.95	1.3	0.867	1.19	0.728	0.686	1.2
G fixed	0.53	0.464	0.85	0.562	1.3	1.35	0.703	1.16	0.964
H fixed	0.802	1.49	1.25	0.718	1.18	1.05	1.31	1.3	0.842
I fixed	1.03	0.679	0.518	3.23	0.674	0.591	0.389	0.522	1.08
K fixed	0.624	0.337	0.775	0.727	1.53	1.04	2.71	2.04	1.35
L fixed	1.17	0.739	0.609	3.06	0.956	0.564	0.427	0.58	1.27
M fixed	3.01	0.951	0.675	1.47	1.14	0.664	0.589	0.881	1.33
N fixed	0.925	1.03	2.68	0.671	1.02	0.843	0.681	0.752	0.599
P fixed	0.203	0.489	0.403	0.654	1.55	0.833	0.687	1.58	0.954
Q fixed	1.19	1.01	1.07	0.661	1.12	0.701	0.861	0.913	0.817
R fixed	1.07	0.416	0.916	0.599	1.2	1.35	4.56	2.14	1.71
V fixed	0.914	0.567	0.499	0.876	0.781	0.978	0.405	0.678	0.801
W fixed	0.924	1.98	1.09	0.607	0.642	1.34	0.886	0.976	1.12
Y fixed	1.2	3.62	1.08	0.559	1.01	1.13	0.711	0.844	1.24
pThr fixed	0.909	0.54	0.378	0.452	0.332	0.451	0.401	0.624	0.6
pTyr fixed	0.419	0.504	0.571	0.287	0.899	0.366	0.376	0.533	0.594
